Consider one protein from PMC9603430, “Folding Mechanism and Aggregation Propensity of the KH0 Domain of FMRP and Its R138Q Pathological Variant” (International Journal of Molecular Sciences, 2022).

The data set deals with the molecule itself. The data set is described as follows: thioflavin T fluorescence; 20 μM protein pre-incubated at 70 °C for 10 min, stoichiometric ThT, 20 mM sodium phosphate pH 7.2, 100 mM NaCl; self-association into fibrillar aggregates.

B1: KH0 domain of FMRP, R138Q pathological variant, res 122-205 (domain or fragment)
chain: not shown
notes: KH0 domain of human FMRP, residues 122-205, Uniprot Q06787, with the missense mutation R138Q found in FXS patients; Made by site-directed mutagenesis of the KH0 construct; the histidine tag was removed by thrombin for the fibrillation/aggregation experiments; also called KH0-R138Q; variant protein; source: E. coli BL-21 (DE3), purified (HisTrap FF, thrombin cleavage, Superdex75 size exclusion)
For B1, the binding result is listed as “binds”.
